Measured values: US6051217, “Therapeutic uses of interleukin-3 (IL-3) multiple mutation polypeptides” (G. D. Searle & Co., dated 2000)

T1: hIL-3 receptor (human, UniProt P26951)
T1 sequence: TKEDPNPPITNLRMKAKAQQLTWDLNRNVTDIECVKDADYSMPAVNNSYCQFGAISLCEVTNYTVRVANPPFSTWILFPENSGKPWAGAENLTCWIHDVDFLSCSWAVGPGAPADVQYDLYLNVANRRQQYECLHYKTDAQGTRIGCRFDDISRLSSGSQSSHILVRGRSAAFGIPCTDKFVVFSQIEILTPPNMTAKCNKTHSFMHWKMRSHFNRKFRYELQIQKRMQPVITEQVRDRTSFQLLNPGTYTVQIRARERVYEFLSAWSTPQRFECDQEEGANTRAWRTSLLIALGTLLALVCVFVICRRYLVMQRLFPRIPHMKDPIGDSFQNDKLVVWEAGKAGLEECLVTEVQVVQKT

B1: pMON13301 polypeptide (ligand)
chain: MANCSIMIDEIIHHLKRPPAPLLDPNNLNAEDVDILMERNLRLPNLESFVRAVKNLENASAIESILKNLLPCLPLATAAPTRHPIHIKDGDWNEFRRKLTFYLKTLENAQAQQ
B2: pMON13302 polypeptide (ligand)
chain: MANCSIMIDEIIHHLKRPPNPLLDPNNLNSEDMDILMERNLRTPNLLAFVRAVKHLENASAIESILKNLLPCLPLATAAPTRHPIHIKDGDWNEFRRKLTFYLKTLENAQAQQ
B3: pMON13303 polypeptide (ligand)
chain: MANCSIMIDEIIHHLKVPPAPLLDSNNLNSEDMDILMERNLRLPNLLAFVRAVKNLENASAIESILKNLLPCLPLATAAPTRHPIHIKDGDWNEFRRKLTFYLKTLENAQAQQ
B4: pMON13287 polypeptide (ligand)
chain: MANCSIMIDEIIHHLKRPPAPLLDPNNLNAEDVDILMERNLRLPNLESFVRAVKNLENASGIEAILRNLQPCLPSATAAPSRHPIIIKAGDWQEFREKLTFYLVTLEQAQEQQ
B5: pMON13288 polypeptide (ligand)
chain: MANCSIMIDEIIHHLKRPPNPLLDPNNLNSEDMDILMERNLRTPNLLAFVRAVKHLENASGIEAILRNLQPCLPSATAAPSRHPIIIKAGDWQEFREKLTFYLVTLEQAQEQQ
B6: pMON13290 polypeptide (ligand)
chain: MANCSIMIDEIIHHLKRPPAPLLDPNNLNAEDVDILMERNLRLPNLESFVRAVKNLENASGIEAILRNLVPCLPSATAAPSRHPITIKAGDWQEFREKLTFYLVTLEQAQEQQ
B7: pMON13312 polypeptide (ligand)
chain: MANCSIMIDEIIHHLKRPPNPLLDPNNLNSEDMDILMERNLRTPNLLAFVRAVKHLENASGIEAILRNLVPCLPSATAAPSRHPITIKAGDWQEFREKLTFYLVTLEQAQEQQ
B8: pMON13295 polypeptide (ligand)
chain: MANCSIMIDEIIHHLKVPPAPLLDSNNLNSEDMDILMERNLRLPNLLAFVRAVKNLENASGIEAILRNLVPCLPSATAAPSRHPITIKAGDWQEFREKLTFYLVSLEHAQEQQ
B9: pMON13475 polypeptide (ligand)
chain: MANCSIMIDEAIHHLKRPPAPLLDPNNLNDEDVSILMDRNLRLPNLESFVRAVKNLENASGIEAILRNLQPCLPSATAAPSRHPIIIKAGDWQEFREKLTFYLVTLEQAQEQQ
B10: pMON13289 polypeptide (ligand)
chain: MANCSIMIDEIIHHLKVPPAPLLDSNNLNSEDMDILMERNLRLPNLLAFVRAVKNLENASGIEAILRNLQPCLPSATAAPSRHPIIIKAGDWQEFREKLTFYLVTLEQAQEQQ
B11: pMON13313 polypeptide (ligand)
chain: MANCSIMIDEIIHHLKRPPAPLLDPNNLNAEDVDILMERNLRLPNLESFVRAVKNLENASGIEAILRNLVPCLPSATAAPSRHPITIKAGDWQEFREKLTFYLVSLEHAQEQQ
B12: pMON13292 polypeptide (ligand)
chain: MANCSIMIDEIIHHLKVPPAPLLDSNNLNSEDMDILMERNLRLPNLLAFVRAVKNLENASGIEAILRNLVPCLPSATAAPSRHPITIKAGDWQEFREKLTFYLVTLEQAQEQQ
B13: pMON13364 polypeptide (ligand)
chain: NCSIMIDEIIHHLKRPPNPLLDPNNLNSEDMDILMERNLRTPNLLAFVRAVKHLENASAIESILKNLLPCLPLATAAPTRHPIHIKDGDWNEFRRKLTFYLKTLENAQAQQ
B14: pMON13285 polypeptide (ligand)
chain: MANCSNMIDEIITHLKQPPLPLLDFNNLNDEDMSILMDNNLRRPNLEAFNRAVKSLQNASAIESILKNLLPCLPLATAAPTRHPIHIKDGDWNEFRRKLTFYLKTLENAQAQQ
B15: pMON13329 polypeptide (ligand)
chain: MANCSNMIDEIITHLKQPPLPLLDFNNLNDEDMSILMENNLRRPNLEAFNRAVKSLQNASAIESILKNLLPCLPLATAAPTRHPIIIRDGDWNEFRRKLTFYLWTLENAQAQQ
B16: pMON13325 polypeptide (ligand)
chain: MANCSNMIDEIITHLKQPPLPLLDFNNLNDEDMSILMENNLRRPNLEAFNRAVKSLQNASAIESILKNLLPCLPLATAAPTRHPIHIKDGDWNEFRRKLTFYLWTLENAQAQQ
B17: pMON13286 polypeptide (ligand)
chain: MANCSNMIDEIITHLKQPPLPLLDFNNLNDEDMSILMENNLRRPNLEAFNRAVKSLQNASAIESILKNLLPCLPLATAAPTRHPIHIKDGDWNEFRRKLTFYLKTLENAQAQQ
B18: pMON13330 polypeptide (ligand)
chain: MANCSNMIDEIITHLKQPPLPLLDFNNLNDEDMSILMDNNLRRPNLEAFNRAVKSLQNASAIESILKNLLPCLPLATAAPTRRPIIIRDGDWNEFRRKLTFYLWTLENAQAQQ
B19: pMON13326 polypeptide (ligand)
chain: MANCSNMIDEIITHLKQPPLPLLDFNNLNDEDMSILMDNNLRRPNLEAFNRAVKSLQNASAIESILKNLLPCLPLATAAPTRHPIHIKDGDWNEFRRKLTFYLWTLENAQAQQ
B20: pMON13298 polypeptide (ligand)
chain: MANCSNMIDEIITHLKQPPLPLLDFNNLNGEDQDILMENNLRRPNLEAFNRAVKSLQNASGIEAILRNLQPCLPSATAAPSRHPIIIKAGDWQEFREKLTFYLVTLEQAQEQQ
B21: pMON13299 polypeptide (ligand)
chain: MANCSNMIDEIITHLKQPPLPLLDFNNLNGEDQDILMENNLRRPNLEAFNRAVKSLQNASGIEAILRNLVPCLPSATAAPSRHPITIKAGDWQEFREKLTFYLVTLEQAQEQQ
B22: pMON13300 polypeptide (ligand)
chain: MANCSNMIDEIITHLKQPPLPLLDFNNLNGEDQDILMENNLRRPNLEAFNRAVKSLQNASGIEAILRNLVPCLPSATAAPSRHPITIKAGDWQEFREKLTFYLVSLEHAQEQQ
B23: pMON13294 polypeptide (ligand)
chain: MANCSIMIDEIIHHLKRPPNPLLDPNNLNSEDMDILMERNLRTPNLLAFVRAVKHLENASGIEAILRNLVPCLPSATAAPSRHPITIKAGDWQEFREKLTFYLVSLEHAQEQQ

Target: T1, hIL-3 receptor
Test: cell-based or functional assay

Binder	Relative Biological Activity (AML 193 proliferation)
B1	2 EC50 (1-133)hIL-3 / EC50 mutant
B2	1.2 EC50 (1-133)hIL-3 / EC50 mutant
B3	0.6 EC50 (1-133)hIL-3 / EC50 mutant
B4	26 EC50 (1-133)hIL-3 / EC50 mutant
B5	24 EC50 (1-133)hIL-3 / EC50 mutant
B6	20 EC50 (1-133)hIL-3 / EC50 mutant
B7	4 EC50 (1-133)hIL-3 / EC50 mutant
B8	3 EC50 (1-133)hIL-3 / EC50 mutant
B9	7 EC50 (1-133)hIL-3 / EC50 mutant
B10	13 EC50 (1-133)hIL-3 / EC50 mutant
B11	8 EC50 (1-133)hIL-3 / EC50 mutant
B12	6 EC50 (1-133)hIL-3 / EC50 mutant
B13	13 EC50 (1-133)hIL-3 / EC50 mutant
B14	32 EC50 (1-133)hIL-3 / EC50 mutant
B15	10 EC50 (1-133)hIL-3 / EC50 mutant
B16	8 EC50 (1-133)hIL-3 / EC50 mutant
B17	8 EC50 (1-133)hIL-3 / EC50 mutant
B18	19 EC50 (1-133)hIL-3 / EC50 mutant
B19	25 EC50 (1-133)hIL-3 / EC50 mutant
B20	3 EC50 (1-133)hIL-3 / EC50 mutant
B21	2 EC50 (1-133)hIL-3 / EC50 mutant
B22	3 EC50 (1-133)hIL-3 / EC50 mutant
B23	3 EC50 (1-133)hIL-3 / EC50 mutant
